The values that follow come from patent publication US20180111967A1 (PIONEER HI BRED INTERNATIONAL, published 2018).

This data set concerns the molecule itself. Briefly: NMR solution structure (self-association, homodimer). The method, then:
For NMR data collection PIP-72Aa (SEQ ID NO: 2) was used at 0.7 mM formulated in 20 mM MES, pH 6.5, 100 mM NaCl, and 5 mM CaCl₂. D₂O and DSS (4,4-dimethyl-4-silapentane-1-sulfonic acid) were added to 10% and 50 μM final concentrations, respectively. This was then loaded into a 4 mm NMR tube (Shigemi). Data collection was at 25° C. on a Bruker 800 MHz spectrometer equipped with a cryo-probe (Monleon, D. et al. 2002, J Struct Funct Genomics 2: 93).
A NOESY peak list containing expected intra-residue, sequential and α-helical medium range NOE peaks was initially generated and manually edited by visual inspection of the simultaneous NOESY (100 ms mixing time) and 13C-edited aromatic NOESY (100 ms mixing time) spectra. NOEs were assigned using matching tolerances of 0.030, 0.025 and 0.40 ppm for indirect 1H, direct 1H and heavy atom 13C/15N, respectively. Subsequent manual peak picking was used to identify remaining, primarily long-range NOEs. In addition, backbone dihedral angle constraints were derived from chemical shifts (Shen, Y. et al. 2009 J Biomol NMR 44:213) for residues located in well-defined secondary structure elements. The initial structure was refined in explicit solvent using standard methods (Linge, J. P. et al. 2003 Proteins-Structure Function and Bioinformatics 50:496).

B1: PIP-72Aa (Pseudomonas Insecticidal Protein-72Aa) polypeptide of SEQ ID NO: 2 (other)
chain: MGITVTNNSSNPIEVAINHWGSDGDTSFFSVGNGKQETWDRSDSRGFVLSLKKNGAQHPYYVQASSKIEVDNNAVKDQGRLIEPLS
modifications: uniformly 15N,13C isotope labeled
notes: Insecticidal protein from Pseudomonas chlororaphis strain SS143D5; For NMR it was expressed in E. coli with an N-terminal His tag, which was removed by proteolysis, so untagged PIP-72Aa was used; also called IPD072Aa
As to B1, the binding result is listed as “binds”.
